In the RNAGym collection of RNA variant scans (doi:10.1073/pnas.2313332121):

B1: TPR t1 (parent)
chain: GACCAAUCUGCCCUCAGAGCUCGAGAACAUCUUCGGAUGCAGAGGAGGCAGGCUUCGGUGGCGCGAUAGCGCCAACGUCCUCAACCUCCAAUGCAUCCCACCACAUGAUGAUGCCUGAAGAGCCUUGGUUUUUUG

Variants of: B1
Assay: polymerase ribozyme fitness, log enrichment relative to wild type (log ratio); higher = more active; in vitro selection for triplet polymerase activity
How it was run: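 Fitness compares each genotype's enrichment to that of the wild type on a logarithmic scale, averaging replicates with inverse-variance weights. The logarithm is base 2. Enrichment came from Illumina sequencing of input and output libraries after one triplicate round of in vitro selection, which included frozen incubation at −7 °C, of PCR-built, transcribed mutant libraries of each subunit of a heterodimeric triplet polymerase ribozyme. Only genotypes with ≥10 input reads and ≥1 read per output were kept.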

Going from GACCAAUCUGCCCUCAGAGCUCGAGAACAUCUUCGGAUGCAGCGGAGGCAGGCUUCGGUGGUGCGAUAGCGGCAACGUCCUCAACCUCCAAUGCAUCCCACCACAUGAUGAUGCCUGAAGAGCCUUGGUUUUUUG to GACCAAUCUGCCCUCAGAGCUCGAGAACAUCUUCGGAUGCAGCGGAGGCAGGCUUCGGUGGCGCGAUAGGGCCAACGUCCUCAACCUCCAAUGCAUCCCACCACAUGAUGUUGCCUGAAGAGCCUUGGUUUUUUG, the “polymerase ribozyme fitness (log ratio)” value falls from -4.05 to -5.68.

Compared with GACCAAUCUGCCCUCAGAGCUCGAGAACAUCUUCGGAUGCAGCGGAGGAAGACUUCGGUGGCGCGAUAGCGCUAACGUCCCCAACCUCCAAUGCCUCCCACCACAUGAUGAUGCCUGAAGAGACUUGGUUUUUUG, GACCAAUCUGCCCUCAGAGCUCGAGAACAUCUUCGGAUGCAGCGGAGGUAGGCUUCGGUGGCGCGAUAGAGCCAACGUCCUCAACCUCCAAUGCAUCCCACUACAUGAUAAUGCCUGAAGAGCCUUGCUUGUUUG is lower in “polymerase ribozyme fitness (log ratio)” value: -6.02 for the first, -6.44 for the second.

Going from GACCAAUCUGCCCUCAGAGCUCGAGAACAUCUUCGGAUGCAGCGGAGGCAGGCUUCGGUGGCGCGAUGGCGCCAACGUCCUCAACCUCCAAUGCAUCCCACCACAUGAAGAUGCCUUAAGAGCCUUGGUUUUUUG to GACCAAUCUGCCCUCAGAGCUCGAGAACAUCUUCGGAUGCAGCGGAGGCAGGCUUCGGUGGCGCGAUAGCGUCAACGUCCUCAACCUCCAAUGCAUCCCACCUCAUGAUGAUGCCUGAAGAGCCAUGGUUUUUUG, the “polymerase ribozyme fitness (log ratio)” value rises from -6.95 to -6.47.

Going from GACCAAUCUGCCCUCAGAGCUCGAGAACAUCUUCGGAUGCAGCGGAGGCAGGCUUCGGUGGCGCGAUAGCGCCAACGUCCUCAAGCUCCAAUGCAUCCCACCACAUGAUGAUGCCUGAAGAGCCUUGGUUUUUUG to GACCAAUCUGCCCUCAGAGCUCGAGAACAUCUUCGGAUGCAGCGGAGGCAGGCUUCGGUGGCGCGAUAGCGCCAAUGUCCUCAACCUCCACUCCAUCCCACCACAUGAUGACUCCCGAAGAGCCUUGGUUUUUUG, the “polymerase ribozyme fitness (log ratio)” value falls from -3.37 to -6.51.

Compared with GACCAAUCUGCCCUCAGAGCUCGAGAACAUCUUCGGAUGCAGCGGAGGCAGGCUUAGGUGGCGCGAUAGCGCCAACGUCCUCAACCUCCAAUGCAUCCCACCACAUGAUGAUGCCUGAAGAGCCUUGGUUUUUUG, GACCAAUCUGCCCUCAGAGCUCGAGAACAUCUUCGGAUGCAGCGGAGACAGGCUUCGGUGGCGCGAUAGCGCCAACGUCCUCAACCUUCAAUGCAUCCCACCACAUGAUGAUGCCUGAAGAGCCUUGGUUUUUUG is higher in “polymerase ribozyme fitness (log ratio)” value: -2.98 for the first, -1.82 for the second.

Compared with GACCAAUCUGCCCUCAGAGCUCGAGAACAUCUUCGGAUGCAGCGGAGGCAGGCUUUGGUGGCGCGAUAGCGCCAACGUCCUAAACCUCCAUUUCACCCCACCACAUGAUGAUGCCUGAAGAGCGUUGGUUUUUUG, GACCAAUCUGCCCUCAGAGCUCGAGAACAUCUUCGGAUGCAGCGGAGGCAGGCUUCGGUGGCGCGAUAGCGCCAACGUCCUCAACCUCCAAUGCAUCCCACCACAUGAUGAUGCGUGAAGAGCCUUGGUUUUUUG is lower in “polymerase ribozyme fitness (log ratio)” value: -2.46 for the first, -3.94 for the second.

First: GACCAAUCUGCCCUCAGAGCUCGAGAACAUCUUCGGAUGCAGCGGAGACAGGCUUCGGUGGCGCGAUAGCGCCAACGUCCUCAACCUCCAAUGCAUCCCACCACAUGAUGAUGCCUGAAGAGCCUUGGUUUUUUG
Second: GACCAAUCUGCCCUCAGAGCUCGAGAACAUCUUCGGAUGCAGCUGAGGCAGGCUUCGGUGGCGCGAUAGCGCCAACGUCCUCAACCUCCAAUGCAUCCCACCACAUGAUGGUGCCUGAAGAGCCUUGGUUUUUUG
The “polymerase ribozyme fitness (log ratio)” value of the first is lower: -2.56 for the first, -1.62 for the second.

Compared with GACCAAUCUGCCCUCAGAGCUCGAGAACAUCUUCGGAUGCAGCGGAUGCAGGCUUCGGUGGCGCGAUAGCGCCAACGUCCUCAACCUCCAAUGCAUCCCACCACAUGAUGAAGCCUGAAGAGCCUUGGUUUUUUA, GACCAAUCUGCCCUCAGAGCUCGAGAACAUCUUCGGAUGCAGCGGAGGCAGGGUUCGGUGGCGCGAUAGUGCCAACGUCCUCAACCUCCAAUGCCUCCCACCACAUGAUGAUGCCUGAAGAGCCUUGGUUUUUUG is lower in “polymerase ribozyme fitness (log ratio)” value: -1.87 for the first, -5.1 for the second.

Compared with GACCAAUCUGCCCUCAGAGCUCGAGAACAUCUUCGGAUGCAGCGGAGGCAGGCUUCGGUGGCGCGAUAGCGACAACGUCCUCAACCUCCAAUGCAUCCCACCACAUGAUGAUGCCUGAAGAGCCUUGGUUUUUUG, GACCAAUCUGCCCUCAGAGCUCGAGAACAUCUUCGGAUGCAGCGGAGGCAGGCUUUGGUGGCGCGAUAGCGCCAACGUGCUCAACCUCCAAUGCAUCCCACCACAUGAUGAUGCCUGAAGAGCCUUGGUUUUUUG is lower in “polymerase ribozyme fitness (log ratio)” value: -2.05 for the first, -5.29 for the second.

Compared with GACCAAUCUGCCCUCAGAGCUCGAGAACAUCUUCGGAUGCAGCCGAGGCAGGCUUCGGUGGCGCGAUAGCCCCAACGUCCUCAACCUCCAAUGCAUCCCACCACAUGAUGAUGCCUGUAGAGCCUUGGUUUUGUG, GACCAAUCUGCCCUCAGAGCUCGAGAACAUCUUCGGAUGCAGCGGAGGCAGGCUUCGGUGGCGCGAUAGCGCCAACGUCCUCAAGCUCCGAUGCAUCACACCACAUGAUGAUGCCUGAAGAGCCUUGGUUUUUUG is lower in “polymerase ribozyme fitness (log ratio)” value: -1.6 for the first, -7.04 for the second.

Going from GACCAAUCUGCCCUCAGAGCUCGAGAACAUCUUCGGAUGCAGCGGAGGCAGGAUUAGGUGGCGCGAUAGCGACAACGUCCUCAACCUCCAAUGCAUCCCACCACAUGAUGAUGCCUGAAGAGCCUUGGUUUUUUG to GACCAAUCUGCCCUCAGAGCUCGAGAACAUCUUCGGAUGCAGCGGAAGCAGGCUUUAGUGGUGCGAUAGCGCCAACGUCCUCAACCUCCAAUGCAUCCCACCCCAUGAUGAUGCCUGAAGAGCCUUGGUUUUUUG, the “polymerase ribozyme fitness (log ratio)” value falls from -2.36 to -6.45.

Compared with GACCAAUCUGCCCUCAGAGCUCGAGAACAUCUUCGGAUGCAGCGGAGGCAGGCUUCGGUGGCGCGAUAGCGCCAACGUCCUCAAACUCCAAUGCAUCCCACCAUAUGAUGAUACCUGAAGAGCCUUGGUUUUUUG, GACCAAUCUGCCCUCAGAGCUCGAGAACAUCUUCGGAUGCAGCGGAUGCAGACUUUGGUGGCGCGAUAGCGCCAACGUCCUCAACCUCCAAUGCAUCCCACCACAUGAUGAUGCCUGAAGAGCCUUGGUUUUUUG is lower in “polymerase ribozyme fitness (log ratio)” value: -2.96 for the first, -4.62 for the second.

First: GACCAAUCUGCCCUCAGAGCUCGAGAACAUCUUCGGAUGCAGCGGAGGCAGGCUUCGGUGGCGCGAUAGCGACAACGUCCUCAACCUCCAAUGCAUCCCACCACAUGAUGAUGCCUGAAGAACCUUGGUUUUUUG
Second: GACCAAUCUGCCCUCAGAGCUCGAGAACAUCUUCGGAUGCAGCGUAGGCAGGCUUCGGUGGCGCGAUAGCGCAAACGUCCUCAACCUCCAUUACAUCCCACCACAUGAUGAAGCCUGAAGAGCCUUGCUUUUUUG
The “polymerase ribozyme fitness (log ratio)” value of the first is higher: -3.17 for the first, -5.37 for the second.

First: GACCAAUCUGCCCUCAGAGCUCGAGAACAUCUUCGGAUGCAGCGGAGGCAGGCUUCGGUGGCGCGAUAGCGCCAACGUCCUCAACCUUCAAUACAUCCCACCACAUGAUGAUGCCUGAAGAGCCUUGGUUUUUUG
Second: GACCAAUCUGCCCUCAGAGCUCGAGAACAUCUUCGGAUGCAGCGGAGGGAGGCUUCGGUGGCGCGAUAGCGCCAACGUCCUCAACCUCCAAUGCAUCCCACCACAUGAUGAUGCCUGAAGAGCCUUGGUUUUUUG
The “polymerase ribozyme fitness (log ratio)” value of the first is higher: -1.96 for the first, -3.17 for the second.

Compared with GACCAAUCUGCCCUCAGAGCUCGAGAACAUCUUCGGAUGCAGCGGAGGAAGGCUUCGGUGGCGCGAUAGCGCCAACGUCCUCAACCUCCAAUGCAUCCCACCACAUGAUGAUGCCUGAAGAGCCUUGGUUUUUUG, GACCAAUCUGCCCUCAGAGCUCGAGAACAUCUUCGGAUGCAGCGGAGGUAGGCUUCGGUGGCGCGAUAGCGCCAACGUCCUCAACCUCCAAUGCAUCCCACCACAUGAUGAUGCCUGAAGAGCCUUGGUUUUUUG is lower in “polymerase ribozyme fitness (log ratio)” value: -3.08 for the first, -3.72 for the second.

Compared with GACCAAUCUGCCCUCAGAGCUCGAGAACAUCUUCGGAUGCAGCGGAGGCAGGCUUCGGUGGCGCGAUAGCGCCAACGUCCUCAACUUCCAAUGCAUCCCACCACAUGAUGAUGCCUGAAGAGCCUUGGUUUUUUG, GACCAAUCUGCCCUCAGAGCUCGAGAACAUCUUCGGAUGCAGCGGAGGCAGGGUUCGGUGUCGCGAUAGCGCCAACGUCCUCAACCUCCAAUGCAUCCCACCACAUGAUGAUGCCUGAAGAGCCUUGAUUUUUUG is lower in “polymerase ribozyme fitness (log ratio)” value: -2.14 for the first, -4.58 for the second.

First: GACCAAUCUGCCCUCAGAGCUCGAGAACAUCUUCGGAUGCAGCGGAUGCAGGUUUCGGUGGCGCGAUAGCGCCAACGUCCUCAACCUGCAAUGCAUCCCACCAUAUGAUGAUGCCUGAAGAGCCUUGGUUUUUUG
Second: GACCAAUCUGCCCUCAGAGCUCGAGAACAUCUUCGGAUGCAGCGGAGGCCGGCUUCGGUGGCGCGAUAGCGCCAACGUCCUCAACUUCAAAUGCAUCCCACCACAUGAUGAUGCCUGAAGAGCCUUGGUUUUUUG
The “polymerase ribozyme fitness (log ratio)” value of the first is lower: -6.05 for the first, -4.9 for the second.

Going from GACCAAUCUGCCCUCAGAGCUCGAGAACAUCUUCGGAUGCAGCGGAGGCAGGCUUCGGUGGCGCGAUAGCGCAAACGUCCGCAACUUCCAAUGCAUCCCACCACAUGAUGAUGCCUGAAGAGCCUUGGUUUUUUG to GACCAAUCUGCCCUCAGAGCUCGAGAACAUCUUCGGAUGCAGCCGAGGCAGGCUUCGGUGGCGCGAUAGCGCCAACGUCCUCAACCUCCAAUGCAUCCCACCACAUGAUGAUGCCUGUAGAGCCUUGGUUUUGUG, the “polymerase ribozyme fitness (log ratio)” value rises from -6.91 to -1.11.

First: GACCAAUCUGCCCUCAGAGCUCGAGAACAUCUUCGGAUGCAGCGGAAGCAGGCUUCGGUGGCGCGAUAGCGCCAACGUCCUCAACCUCCAAUGCAUCCCACCACAUGAUGAUGCCUGAAGAGCCUUGGUUUUUUG
Second: GACCAAUCUGCCCUCAGAGCUCGAGAACAUCUUCGGAUGCAGCGAAGCCAGGCUUCGGUGGCGCGAUAGCGCCAACGUCCUCAACCUCCAAUGCAUCCCACCACAUGAUGAUGCCUGAAGAGCCUUGGUUUUUUG
The “polymerase ribozyme fitness (log ratio)” value of the first is lower: -4.53 for the first, -3.39 for the second.

GACCAAUCUGCCCUCAGAGCUCGAGAACAUCUUCGGAUGCAGCGGAGGCAGGAUUCGGUGGCGCGAUAGCGCCAACGUCCUCAACCUCCAAUGCUUCCCACCACAUGAAGAUGCCUGAAGAGCCUUGGUGUUUUG and GACCAAUCUGCCCUCAGAGCUCGAGAACAUCUUCGGAUGCAGCGGAGGCAGGCUUGGGUGGGGCGAUGGCGCCAACGUCCUCAACCUCCAAUGCAUCCCACCACAUGAUGAUGCCUGAAAAGCCUUGGUUUUUUG are within 0.2 log units of each other in “polymerase ribozyme fitness (log ratio)” value: -7.32 for the first, -7.42 for the second.

Going from GACCAAUCUGCCCUCAGAGCUCGAGAACAUCUUCGGAUGCAGCGGAGGCAGGUUUCGGUGGCGCGAUAGCGCCAACGUCCUCAACCUCCAAUGCAUCCCACCACAUGAUCAUGCCUGAAGAGCCUUGGUUUUUUG to GACCAAUCUGCCCUCAGAGCUCGAGAACAUCUUCGGAUGCAGCGGAGGCGGGCUUCGGUGACGCGAUAGCGCCAACGUCCUCAACCUCCAAUGCAUCCCACCACAUGAUGAUGCACGAAGAGCCUUGGUUUUUUG, the “polymerase ribozyme fitness (log ratio)” value rises from -7.24 to -4.2.
